Measured values taken from publication PMC7820290.

Molecular target: SARS-CoV-2 nucleocapsid (N), wild type (SARS-CoV-2, UniProt P0DTC9 1-419)
Experiment: co-condensation microscopy; 10 uM N, maximal at 5 uM RNA, reentrant
Conditions: protein: recombinant; tags: N-terminal His6 cleaved by TEV; Cys inserted before residue 1 in the dye-labelled fraction; chain copies: 2; label: 6-FAM (fluorescein)

AAGCAGCUAAGAGCGAA (ssRNA) [17-mer RNA]
binding result: binds
